# B1: Enterococcus faecalis phosphopantothenoylcysteine synthetase (enzyme, UniProt A0ACD6TE34 1-257, looked up)
# chain: MDVLVTAGGTSEPIDNVRSITNHSSGGLGKAIAESFLAAGHTVTYVTTKHALRPTQQLDLSIKEIETTVELATTLEQLFAEKQFDAIVHAMAVSDFTTEAAQTEEQFIDSFTQQLSEQTLPKTKEALATIVQNTLNQIADIPQTATKISSDTDRLLIFLKKNPKVIQMIRDKQPQTVLVGFKLLVDVSQEELVQVAQAALVKNRCDFVLANDLMNVHETEHEGLLINETGIVQEACSKQGIGSMIVKNVEKKWREQQ
# Target: the molecule itself
# Experiment: SEC
protein,measurement,value
B1,stoichiometry N,2

# — publication PMC2892170 (Biochemistry, 2009)
